Measured values from publication PMC9330529.

Assays:
[1] = target: SARS-CoV-2 spike protein Delta (SARS-CoV-2 (Delta variant)) (UniProt P0DTC2); assay: flow cytometry on Ni-NTA beads
[2] = target: SARS-CoV-2 spike protein Delta (SARS-CoV-2 (Delta variant)) (UniProt P0DTC2); assay: streptavidin bead fluorescence binding

## CGCAGCACCCAAGAACAAGGACTGCTTAGGATTGCGATAGGTTCGGAAAAAAGGCGGGTTCCTAGACTTGTACTCAGCCT [S1B6C3-A5-S2A2C1]
[1]
  Kd: 32.6 nM
[2]
  Kd: 34.1 nM
